# Data published in article PMC9045712 (Science Advances, 2022).
# B1: recombinant NPM1 (nucleophosmin), from 6x His-FLAG-TEV-NPM1 (natural protein)
# chain: MEDSMDMDMSPLRPQNYLFGCELKADKDYHFKVDNDENEHQLSLRTVSLGAGAKDELHIVEAEAMNYEGSPIKVTLATLKMSVQPTVSLGGFEITPPVVLRLKCGSGPVHISGQHLVAVEEDAESEDEDEEDVKLLGMSGKRSAPGGGNKVPQKKVKLDEDDEDDDEDDEDDEDDDDDDFDEEETEEKVPVKKSVRDTPAKNAQKSNQNGKDLKPSTPRSKGQESFKKQEKTPKTPKGPSSVEDIKAKMQASIEKGGSLPKVEAKFINYVKNCFRMTDQEAIQDLWQWRKSL
# Target: recombinant MCM2 (minichromosome maintenance protein 2), from 6x His-FLAG-TEV-MCM2 (mouse, UniProt P97310 1-904)
# Sequence (P97310 whole entry): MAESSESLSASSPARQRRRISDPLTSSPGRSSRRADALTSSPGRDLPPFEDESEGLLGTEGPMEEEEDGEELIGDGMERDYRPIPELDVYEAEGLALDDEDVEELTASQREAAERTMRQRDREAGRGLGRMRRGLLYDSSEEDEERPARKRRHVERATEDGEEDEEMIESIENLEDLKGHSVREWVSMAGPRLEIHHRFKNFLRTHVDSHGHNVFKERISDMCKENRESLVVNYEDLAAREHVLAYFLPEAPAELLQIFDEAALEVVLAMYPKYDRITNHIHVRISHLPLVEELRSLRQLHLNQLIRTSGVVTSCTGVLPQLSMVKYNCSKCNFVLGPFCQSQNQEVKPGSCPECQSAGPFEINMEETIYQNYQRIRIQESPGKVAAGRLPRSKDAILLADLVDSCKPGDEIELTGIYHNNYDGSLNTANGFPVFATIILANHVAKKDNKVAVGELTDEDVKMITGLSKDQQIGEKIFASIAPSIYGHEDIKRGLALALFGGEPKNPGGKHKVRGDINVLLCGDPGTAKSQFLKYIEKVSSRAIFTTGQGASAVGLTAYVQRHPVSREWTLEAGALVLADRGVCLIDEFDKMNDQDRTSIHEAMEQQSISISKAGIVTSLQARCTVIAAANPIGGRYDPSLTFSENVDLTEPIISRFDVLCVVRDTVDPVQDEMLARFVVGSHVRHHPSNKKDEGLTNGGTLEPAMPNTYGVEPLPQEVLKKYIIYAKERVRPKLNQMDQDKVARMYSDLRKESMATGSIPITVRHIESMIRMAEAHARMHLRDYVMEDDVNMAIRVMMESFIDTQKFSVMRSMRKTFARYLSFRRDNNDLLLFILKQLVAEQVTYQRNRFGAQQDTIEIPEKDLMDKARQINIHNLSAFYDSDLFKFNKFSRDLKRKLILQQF
# Test: co-IP
binder,measurement,value
B1,binding result,binds
